Data taken from US11541125B2, “Noncrushable pill formulations” (THE REGENTS OF THE UNIVERSITY OF CALIFORNIA, priority 2016, dated 2023).
Like-named read-outs stand apart in the source and are kept apart here. Square brackets hold non-standard residues; d marks the D form. Side chains are listed from the residue outwards. Peptide text beside a SMILES is read from it. * marks the point of attachment. ξ: configuration not given here. X2 = CN(CCN*)C(=S)Oc1ccc2c3c1O[C@H]1C(=O)CC[C@@]4(O)[C@@H](C2)N(CC2CC2)CC[C@]314; X1 = CN(CCN*)C(=O)Oc1ccc2c3c1OC1C(=O)CCC4(O)C(C2)N(CC2CC2)CCC314; X4 = CN(CCN*)C(=O)Oc1ccc([N+](=O)[O-])cc1; Trt = c1ccc(C(c2ccccc2)(c2ccccc2)*)cc1; ξF = NC(Cc1ccccc1)C(=O)O; Boc = CC(C)(C)OC(=O)*; ξK = NCCCCC(N)C(=O)O; ξC = NC(CS)C(=O)O; ξA = CC(N)C(=O)O

Columns and labels:
[1] = system: trypsin and/or chymotrypsin; assay: pNA release assay (absorbance at 405 nm); assay type: biochemical; details: 2 mM, incubated with trypsin and/or chymotrypsin, 90 minutes, 37° C.
Method: A stock solution of the CAAK(F)-diamino-pNA was prepared in dimethyl sulfoxide (DMSO) to produce a 16.0 mg/mL solution. A 7.5 mg/mL stock solution of the trypsin was prepared in 50 mM NH4HCO3 buffer (pH=8.05). A 7.5 mg/mL stock solution of chymotrypsin was prepared in 50 mM NH4HCO3 buffer (pH=8.05).
A 96 well plate was used for monitoring the solutions at 405 nm using a plate reader. 20 μL of the peptide was combined with 62.0/66.6 μL of no enzyme, trypsin only, chymotrypsin only, or with both enzymes respectively. All solutions were diluted to a total volume of 200 μL using 50 mM NH4HCO3 (pH=8.05). Blanks were prepared by combining the enzymes with DMSO/buffer and their absorbances were subtracted from the cleavage conditions. Additionally, the residual signal from the peptide in the presence of no enzymes was also used as a blank and subtracted out from enzymatic conditions.

[2] = Method: In order to determine the stability of the enzymatically cleavable covalent linkage between the dual-enzyme responsive peptide and Naltrexone, the drug conjugates (below) were synthesized and subjected to a range of different pH buffers that were chosen to emulate the pH range of typical household chemicals (pH 2-10).
The stabilities of these linkages were assessed by HPLC by monitoring the relative amount of Naltrexone versus the intact peptide-Naltrexone conjugate.

[3] = conjugate sample, no pH buffer named

Row | Structure (SMILES) | theoretical pNA released [1] [%] | stability over the entire pH range ([2]; HPLC, pH buffers) | Percent Degradation, t = 0.5 hr [2, 3] [%] | Percent Degradation, t = 24 hr [2, 3] [%] | Percent Degradation, t = 0.5 hr ([2]; in pH 2) [%] | Percent Degradation, t = 0.5 hr ([2]; in pH 4) [%] | Percent Degradation, t = 0.5 hr ([2]; in pH 7) [%] | stability of the linkage relative to the other linkers ([2]; HPLC, Naltrexone versus intact conjugate, pH buffers) | Percent Degradation, t = 24 hr ([2]; in pH 2) [%]
1 | CC(=O)NC(CS)C(=O)NC(C)C(=O)NC(C)C(=O)NC(CCCCNC(=O)C(N)Cc1ccccc1)C(=O)NCCN(C)C(=O)Oc1ccc([N+](=O)[O-])cc1 (centres unmarked) [CAAK(F)-diamino-pNA] (Ac-CAAK(Phe)-X4; configuration not given here) | 55 | – | – | – | – | – | – | – | –
2 | CC(=O)NC(CSC(c1ccccc1)(c1ccccc1)c1ccccc1)C(=O)NC(C)C(=O)NC(C)C(=O)NC(CCCCNC(=O)C(Cc1ccccc1)NC(=O)OC(C)(C)C)C(=O)NCCN(C)C(=O)Oc1ccc2c3c1OC1C(=O)CCC4(O)C(C2)N(CC2CC2)CCC314 (centres unmarked) [NPC] (Ac-C(Trt)AAK([Phe-Boc])-X1; configuration not given here) | – | very good stability | 0 | 0 | 6.00 | 3.50 | 1.50 | – | –
3 | CC(=O)NC(CS)C(=O)NC(C)C(=O)NC(C)C(=O)NC(CCCCNC(=O)C(N)Cc1ccccc1)C(=O)NCCN(C)C(=S)Oc1ccc2c3c1O[C@H]1C(=O)CC[C@@]4(O)[C@@H](C2)N(CC2CC2)CC[C@]314 (some centres unmarked) [NPT] (Ac-[ξC][ξA][ξA][ξK](ξF)-X2) | – | – | 0.51 | 2.90 | – | – | – | more stable than the carbamate linker | 4.10
